Where no end group is shown, it is not given here. [ ]: non-standard residue; d: D form. Lys(Me3) = C[N+](C)(C)CCCC[C@H](N)C(=O)O; Lys(Me2) = CN(C)CCCC[C@H](N)C(=O)O; Lys(Me) = CNCCCC[C@H](N)C(=O)O
How the values were obtained:
Human Spindlin1 50-262 [1] = biological target: T1, Human Spindlin1 50-262 (human, UniProt Q9Y657 50-262); test: ITC
[2] = biological target: T2, Spindlin1_(50-262) bound to DOCpep3 (human | , UniProt Q9Y657 50-262; Q9BUA3 256-281); test: ITC
T2 chain 1: […]
T2 chain 2: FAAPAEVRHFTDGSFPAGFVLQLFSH

[3] = biological target: Spindlin1_(50-262) bound to DOCpep(1-3) (human | , UniProt Q9Y657 50-262; Q9BUA3 188-281); test: ITC
SEC = biological target: the molecule itself; test: SEC
native gel or EMSA = biological target: the molecule itself; test: native gel or EMSA
Spindlin1 F141A = Spindlin1 F141A (human, UniProt Q9Y657 50-262, F141A); test: ITC
Spindlin1 W151A = Spindlin1 W151A (human, UniProt Q9Y657 50-262, W151A); test: ITC
Spindlin1 Y177A = Spindlin1 Y177A (human, UniProt Q9Y657 50-262, Y177A); test: ITC
Human Spindlin1 50-262 [4] = biological target: T1, Human Spindlin1 50-262; test: thermal shift assay

Chain of Spindlin1 Y177A (Q9Y657 50-262 Y177A): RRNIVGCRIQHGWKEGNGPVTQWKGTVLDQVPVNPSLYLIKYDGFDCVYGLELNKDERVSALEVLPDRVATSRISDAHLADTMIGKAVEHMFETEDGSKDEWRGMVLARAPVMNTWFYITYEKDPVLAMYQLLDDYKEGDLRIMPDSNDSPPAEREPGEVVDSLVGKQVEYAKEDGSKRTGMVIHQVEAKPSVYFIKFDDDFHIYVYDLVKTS
Chain of Spindlin1 W151A (Q9Y657 50-262 W151A): as the sequence (Q9Y657 50-262 Y177A) above, with W102A, A128Y counted along it
Chain of Spindlin1 F141A (Q9Y657 50-262 F141A): as the sequence (Q9Y657 50-262 Y177A) above, with F92A, A128Y counted along it

B1: DOCpep1, SPIN•DOC 187-195 peptide (peptide)
peptide: LPKRSRPRG
In the case of B1, the Kd (Human Spindlin1 50-262 [1]) is reported as 78 µM.

B2: DOCpep1 R192A peptide (peptide)
peptide: LPKRSAPRG
B2 was tested, and the “fold reduction of binding against wild-type DOCpep1” value (Human Spindlin1 50-262 [1]) was 11 fold.

B3: DOCpep1 K189A peptide (peptide)
peptide: LPARSRPRG
For B3, the “fold reduction of binding against wild-type DOCpep1” value (Human Spindlin1 50-262 [1]) was 9 fold.

B4: histone H3 1-15 K4me3K9me2 peptide (peptide)
peptide: ART[Lys(Me3)]QTAR[Lys(Me2)]STGGKA
With B4 the binding result [2] was “binds” and the “fold decrease of binding affinity in the presence of DOCpep(1-3)” value [3] was roughly 4.5 fold.

B5: histone H3 1-15 K4me3K9me1 peptide (peptide)
peptide: ART[Lys(Me3)]QTAR[Lys(Me)]STGGKA
For B5, the binding result [2] was “binds” and the “fold decrease of binding affinity in the presence of DOCpep(1-3)” value [3] was roughly 17 fold.

B6: full-length SPIN•DOC with N-terminal 6xHis tag, co-expressed with Spindlin1 (natural protein, UniProt Q9BUA3 1-381, looked up)
chain: MALKAEGAALDCFEVTLKCEEGEDEEEAMVVAVIPRPEPMLRVTQQEKTPPPRPSPLEAGSDGCEEPKQQVSWEQEFLVGSSPGGSGRALCMVCGAEIRAPSADTARSHILEQHPHTLDLSPSEKSNILEAWSEGVALLQDVRAEQPSPPNSDSGQDAHPDPDANPDAARMPAEIVVLLDSEDNPSLPKRSRPRGLRPLELPAVPATEPGNKKPRGQRWKEPPGEEPVRKKRGRPMTKNLDPDPEPPSPDSPTETFAAPAEVRHFTDGSFPAGFVLQLFSHTQLRGPDSKDSPKDREVAEGGLPRAESPSPAPPPGLRGTLDLQVIRVRMEEPPAVSLLQDWSRHPQGTKRVGAGDTSDWPTVLSESSTTVAGKPEKGNGV
For B6, the “stoichiometry N” value (SEC) was 2.

B7: Flag-SPIN•DOC wild type (natural protein, UniProt Q9BUA3 1-381, looked up)
chain: B6 chain
With B7 the “stoichiometry N” value (native gel or EMSA) was 2.

B8: GFP-SPIN•DOC wild type (natural protein, UniProt Q9BUA3 1-381, looked up)
chain: B6 chain
In the case of B8, the “stoichiometry N” value (native gel or EMSA) is reported as 2.

B9: histone H3 1-15 K4me3K9me3 peptide (peptide)
peptide: ART[Lys(Me3)]QTAR[Lys(Me3)]STGGKA
B9: binds [2].

B10: DOCpep2, SPIN•DOC 228-239 peptide (peptide, UniProt Q9BUA3 228-239, looked up)
peptide: VRKKRGRPMTKN
B10: binds (Spindlin1 F141A); binds (Spindlin1 W151A); binds (Spindlin1 Y177A). The Kd (Human Spindlin1 50-262 [1]) was 31 µM.

B11: SPIN•DOC 188-281, DOCpep(1-3) (domain or fragment)
chain: PKRSRPRGLRPLELPAVPATEPGNKKPRGQRWKEPPGEEPVRKKRGRPMTKNLDPDPEPPSPDSPTETFAAPAEVRHFTDGSFPAGFVLQLFSH
B11: binds (Human Spindlin1 50-262 [4]).

B12: SPIN•DOC 184-240, the whole K/R-rich region (domain or fragment)
chain: NPSLPKRSRPRGLRPLELPAVPATEPGNKKPRGQRWKEPPGEEPVRKKRGRPMTKNL
In the case of B12, the Kd (Human Spindlin1 50-262 [1]) is reported as 7.6 µM and the “stoichiometry N” value (Human Spindlin1 50-262 [1]) is reported as 0.5.

— article doi:10.1101/2021.03.07.432812 (bioRxiv, 2021)
